Experiment: Relaxivity (T1) of the contrast agent as a measure of molecular conformation
Format: physicochemical
Settings: low for an elongated conformation, high for a globular (folded) one

Substance	relaxivity
albumen	about 15 sec.−1 mM−1
Polylysine-Gd-DTPA [Gd- DTPA polylysine]	about 8 sec.−1 mM−1
